Laboratory results from patent US20210238253A1 (GUANGDONG ZHAOTAI INVIVO BIOMEDICINE, published 2021).
Substitutions are numbered along the chain they refer to. Blank lines part the entries; values can stand above or below the binder they belong to.

Tests used:
[1] = biological target: T1, hCD19-his (human CD19 recombinant protein, Pro20-Lys291, His tag at C-terminus) (human, UniProt P15391 20-291); experiment: ELISA, coated hCD19-His
T1 construct: range 20-291; also called human CD19-His
T1 sequence (looked up): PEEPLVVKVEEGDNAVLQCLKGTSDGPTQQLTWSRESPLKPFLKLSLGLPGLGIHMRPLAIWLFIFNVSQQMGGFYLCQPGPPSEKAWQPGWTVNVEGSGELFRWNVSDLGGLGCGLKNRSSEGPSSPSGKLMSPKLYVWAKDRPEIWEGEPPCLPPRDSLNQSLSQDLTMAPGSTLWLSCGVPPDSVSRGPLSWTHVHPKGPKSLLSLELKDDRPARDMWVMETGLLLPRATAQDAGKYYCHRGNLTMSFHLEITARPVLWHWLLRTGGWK
Protocol: The antibodies were screened by ELISA according to Example 2. Briefly, […] of hCD19-His (ACRO) were spread and incubated. The purified antibodies were serially diluted to bind the incubated antigen. The binding signal of each antibody could be detected with HRP-labeled goat anti-rat Fc antibody.
Graphpad Prism software was used to calculate the fitting data.

hVISTA-his = biological target: T2, hVISTA-his (human, UniProt Q9H7M9 33-194); experiment: ELISA, coated antigen 0.5 µg/ml
T2 construct: Coated antigen of the specificity ELISA
T2 sequence (looked up): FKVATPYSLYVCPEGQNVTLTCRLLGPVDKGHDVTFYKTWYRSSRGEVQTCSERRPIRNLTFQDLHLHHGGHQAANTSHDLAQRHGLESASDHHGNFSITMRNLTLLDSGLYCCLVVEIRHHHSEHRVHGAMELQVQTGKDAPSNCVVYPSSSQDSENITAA
Protocol: (§1) According to the method described in Example 4, 0.5 μg/ml of hCD19-His, hVISTA-his, hPD-L1, hCD40, h41BB and hLAG3 were spread and incubated respectively, and 2μg/ml of purified antibodies were added to bind the incubated antigen. The binding signal of each antibody could be detected with HRP-labeled goat anti-rat Fc antibody.

hPD-L1 = biological target: T3, hPD-L1 (human, UniProt Q9NZQ7 19-238, limits assumed); experiment: ELISA, coated antigen 0.5 µg/ml
T3 construct: Coated antigen of the specificity ELISA
T3 sequence (Q9NZQ7 19-238 limits assumed): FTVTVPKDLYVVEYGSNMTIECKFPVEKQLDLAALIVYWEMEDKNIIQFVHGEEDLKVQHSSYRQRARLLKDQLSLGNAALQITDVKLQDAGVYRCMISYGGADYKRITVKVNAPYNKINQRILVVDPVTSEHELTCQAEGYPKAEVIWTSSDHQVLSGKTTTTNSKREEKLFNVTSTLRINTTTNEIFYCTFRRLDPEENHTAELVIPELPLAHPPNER
Protocol: as §1

hCD40 = biological target: T4, hCD40 (human, UniProt P25942 21-193); experiment: ELISA, coated antigen 0.5 µg/ml
T4 construct: Coated antigen of the specificity ELISA
T4 sequence (P25942 21-193 limits assumed): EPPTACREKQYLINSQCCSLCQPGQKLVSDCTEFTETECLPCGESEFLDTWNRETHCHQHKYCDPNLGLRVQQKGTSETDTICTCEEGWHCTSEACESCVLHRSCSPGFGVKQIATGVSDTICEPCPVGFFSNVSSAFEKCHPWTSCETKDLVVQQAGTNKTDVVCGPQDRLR
Protocol: as §1

h41BB = biological target: T5, h41BB (human, UniProt Q07011 24-186); experiment: ELISA, coated antigen 0.5 µg/ml
T5 construct: Coated antigen of the specificity ELISA
Protocol: as §1

hLAG3 = biological target: T6, hLAG3 (human, UniProt P18627 23-450, limits assumed); experiment: ELISA, coated antigen 0.5 µg/ml
T6 construct: Coated antigen of the specificity ELISA
T6 sequence (looked up): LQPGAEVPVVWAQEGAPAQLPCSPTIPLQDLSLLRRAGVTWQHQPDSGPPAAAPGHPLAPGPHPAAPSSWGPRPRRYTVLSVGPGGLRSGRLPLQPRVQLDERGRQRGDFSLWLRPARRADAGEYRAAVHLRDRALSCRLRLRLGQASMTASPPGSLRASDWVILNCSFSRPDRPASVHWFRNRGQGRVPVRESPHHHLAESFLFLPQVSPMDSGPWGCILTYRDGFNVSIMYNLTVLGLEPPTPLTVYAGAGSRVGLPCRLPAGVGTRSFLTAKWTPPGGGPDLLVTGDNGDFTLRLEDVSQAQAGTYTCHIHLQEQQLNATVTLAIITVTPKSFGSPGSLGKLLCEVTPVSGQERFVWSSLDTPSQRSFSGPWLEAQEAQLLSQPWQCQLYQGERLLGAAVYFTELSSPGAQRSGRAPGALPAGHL
Protocol: as §1

[2] = biological target: T7, CD19 expressed by Nalm6 cells (UniProt P15391 20-556, limits assumed); experiment: flow cytometry on Nalm6 cells
T7 construct: whole, on cells; Endogenous CD19 on tumor cell lines; also called Nalm6/GL; CD19 antigen on RAJI-GL and NALM6-GL tumor cells
T7 sequence (looked up): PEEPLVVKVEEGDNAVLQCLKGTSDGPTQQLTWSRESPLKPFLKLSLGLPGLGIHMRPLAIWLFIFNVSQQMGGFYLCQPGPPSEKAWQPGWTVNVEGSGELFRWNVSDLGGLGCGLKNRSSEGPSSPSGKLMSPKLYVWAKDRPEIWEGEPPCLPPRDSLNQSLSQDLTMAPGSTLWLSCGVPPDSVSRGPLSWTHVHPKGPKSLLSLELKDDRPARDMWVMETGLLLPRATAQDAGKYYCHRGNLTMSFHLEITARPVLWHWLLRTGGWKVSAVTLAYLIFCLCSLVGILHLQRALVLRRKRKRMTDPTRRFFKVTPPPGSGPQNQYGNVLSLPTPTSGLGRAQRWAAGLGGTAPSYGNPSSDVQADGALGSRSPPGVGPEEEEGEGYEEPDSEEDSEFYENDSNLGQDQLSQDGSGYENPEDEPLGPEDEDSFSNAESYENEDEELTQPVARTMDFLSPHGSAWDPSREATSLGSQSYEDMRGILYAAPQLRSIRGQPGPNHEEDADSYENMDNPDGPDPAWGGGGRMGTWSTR
Protocol: The CD19-expressing tumor cells Nalm6 in logarithmic growth phase were collected and resuspended in PBS at a cell density of 10⁵/well, 100 μl/well. The diluted CD19 antibodies were added into the well and incubated at 4° C. for 1 hour. The cells were washed three times with flow cytometry wash buffer. Anti-rat IgG-Alexa Fluor 647 (Abcam, Cat #ab150163) was added and incubated at 4° C. for 1 hour. The cells were washed three times with flow cytometry wash buffer. The samples were analyzed by flow cytometry. The results are shown in FIG. 3 and Table 4, as follows: […]

[3] = biological target: T8, CD19 expressed by Nalm6 cells (UniProt P15391 20-556); experiment: flow cytometry
T8 chain: T7 sequence (looked up)

EC50 [1]: 0.0672 µg/mL
binding result (hVISTA-his): no binding (tested: 2 µg/ml)
binding result (hPD-L1): no binding (tested: 2 µg/ml)
binding result (hCD40): no binding (tested: 2 µg/ml)
binding result (h41BB): no binding (tested: 2 µg/ml)
binding result (hLAG3): no binding (tested: 2 µg/ml)
Maximum mean fluorescence intensity (30 µg/ml) [2]: 30000
EC50 [3]: 57.3 µg/mL
B1: 27F11 (hybridoma antibody) (antibody, V domains shown)
VH: QVQLVESGGGVVQPGRSLRLSCAASGFTFSRHGMHWVRQAPGKGLEWVAVIYYDGSNKYYVDSVKGRFTISRDNSKNTLDLQMNSLRAEDTAVYYCARRSITWNGAFDIWGQGTMVTVSS
VL: DIQMTQSPSTLSASVGDRVTISCRASQSISSWLAWYQQKPGKAPKLLIYKASSLESGVPSRFSGSGSGTEFTLTISSLQPDDFATYYCQQYNSAYTFGQGTKLEIK
notes: hybridoma mAb from H2L2 mouse (human variable, rat constant regions)

EC50 [1]: 0.176 µg/mL
binding result (hVISTA-his): no binding (tested: 2 µg/ml)
binding result (hPD-L1): no binding (tested: 2 µg/ml)
binding result (hCD40): no binding (tested: 2 µg/ml)
binding result (h41BB): no binding (tested: 2 µg/ml)
binding result (hLAG3): no binding (tested: 2 µg/ml)
Maximum mean fluorescence intensity (30 µg/ml) [2]: 25500
EC50 [3]: 36.9 µg/mL
B2: 17B6 (hybridoma antibody) (antibody, V domains shown)
VH: B1 VH with A23E, Y52F, N57Q, K58N, V61A, K65R, D80S, N84D, A106G, S120P
VL: B1 VL with S22T, T74A, S93R, A94F
notes: as for B1

EC50 [1]: 0.0592 µg/mL
binding result (hVISTA-his): no binding (tested: 2 µg/ml)
binding result (hPD-L1): no binding (tested: 2 µg/ml)
binding result (hCD40): no binding (tested: 2 µg/ml)
binding result (h41BB): no binding (tested: 2 µg/ml)
binding result (hLAG3): no binding (tested: 2 µg/ml)
Maximum mean fluorescence intensity (30 µg/ml) [2]: 5160
EC50 [3]: 1.87 µg/mL
B3: 52F9 (hybridoma antibody) (antibody, V domains shown)
VH: QVQLVESGGGVVQAGRSLRLSCAASGFTFSNYGIHWVRQAPGKGLEWVGVIWHDGSIKNYADFVKGRFTISRDNSEDTLYLQMNSLRAEDTAVYYCAREQGNYYGWGSYKAFDIWGQGTMVTVSS
VL: DIQLTQSPSFLSVFVGDRVTITCRASQGISNYLAWYQQKPGKAPELLLYATSTLQSGVPSRLSGSGSGTEFTLTLSSLQPEDFATYYCQQVYSFPYTFGQGTKLEIK
notes: as for B1
